Test results published in patent US20240425601A1 (University of California, published 2024).

Target: cell surface-expressed human αvβ8 (human, UniProt P06756 31-1048; P26012 43-769)
Assay: cell-based or functional assay

cell surface-expressed human αvβ8, sequence (P06756 31-1048, chain 1 of 2): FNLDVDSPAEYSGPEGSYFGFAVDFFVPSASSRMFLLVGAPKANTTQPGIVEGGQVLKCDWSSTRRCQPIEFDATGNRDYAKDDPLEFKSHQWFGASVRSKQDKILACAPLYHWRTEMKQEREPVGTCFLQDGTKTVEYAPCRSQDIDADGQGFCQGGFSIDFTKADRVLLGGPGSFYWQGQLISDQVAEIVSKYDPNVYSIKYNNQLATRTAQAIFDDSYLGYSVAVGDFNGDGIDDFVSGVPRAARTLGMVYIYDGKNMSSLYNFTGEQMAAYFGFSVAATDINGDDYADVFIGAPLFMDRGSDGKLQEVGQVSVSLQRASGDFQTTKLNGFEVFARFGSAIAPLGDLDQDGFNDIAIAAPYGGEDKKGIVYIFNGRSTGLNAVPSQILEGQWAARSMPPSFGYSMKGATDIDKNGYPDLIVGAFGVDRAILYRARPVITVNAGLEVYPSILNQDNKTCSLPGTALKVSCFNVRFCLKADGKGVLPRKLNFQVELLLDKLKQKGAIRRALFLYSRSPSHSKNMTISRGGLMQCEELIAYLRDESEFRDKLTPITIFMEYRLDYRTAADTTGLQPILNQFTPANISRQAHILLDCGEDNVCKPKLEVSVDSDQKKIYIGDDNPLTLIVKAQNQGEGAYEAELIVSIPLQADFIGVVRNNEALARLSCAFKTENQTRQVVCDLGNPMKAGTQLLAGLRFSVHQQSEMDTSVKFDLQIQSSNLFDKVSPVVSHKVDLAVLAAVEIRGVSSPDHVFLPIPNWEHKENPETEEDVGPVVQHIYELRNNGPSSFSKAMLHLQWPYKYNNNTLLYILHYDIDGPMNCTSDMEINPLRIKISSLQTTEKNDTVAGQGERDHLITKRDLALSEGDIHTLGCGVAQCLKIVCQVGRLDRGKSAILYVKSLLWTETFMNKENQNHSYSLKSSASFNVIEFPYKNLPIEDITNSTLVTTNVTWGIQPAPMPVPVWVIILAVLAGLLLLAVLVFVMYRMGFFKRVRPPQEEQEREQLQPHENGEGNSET
cell surface-expressed human αvβ8, sequence (P26012 43-769, chain 2 of 2): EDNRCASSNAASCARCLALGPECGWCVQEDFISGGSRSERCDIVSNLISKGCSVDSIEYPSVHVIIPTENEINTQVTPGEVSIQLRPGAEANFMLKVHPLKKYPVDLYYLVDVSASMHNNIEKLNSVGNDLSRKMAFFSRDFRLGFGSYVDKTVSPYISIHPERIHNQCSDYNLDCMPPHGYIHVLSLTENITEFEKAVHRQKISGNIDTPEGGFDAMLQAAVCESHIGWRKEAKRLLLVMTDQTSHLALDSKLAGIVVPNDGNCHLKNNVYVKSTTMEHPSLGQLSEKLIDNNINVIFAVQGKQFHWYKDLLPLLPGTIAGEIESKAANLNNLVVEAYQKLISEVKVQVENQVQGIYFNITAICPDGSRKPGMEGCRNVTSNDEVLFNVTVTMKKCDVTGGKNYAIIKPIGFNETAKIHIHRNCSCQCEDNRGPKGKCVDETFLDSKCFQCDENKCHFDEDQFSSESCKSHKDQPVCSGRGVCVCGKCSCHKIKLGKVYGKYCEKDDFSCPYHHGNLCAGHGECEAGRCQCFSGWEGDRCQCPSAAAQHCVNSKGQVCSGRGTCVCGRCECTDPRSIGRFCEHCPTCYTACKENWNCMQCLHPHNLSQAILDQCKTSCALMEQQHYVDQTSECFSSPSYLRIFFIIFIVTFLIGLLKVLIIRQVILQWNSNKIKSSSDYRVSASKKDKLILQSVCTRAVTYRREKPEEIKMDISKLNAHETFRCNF

B1: ADWA16 (antibody, V domains shown)
VH: QVQLQQSGAELAKPGASMKMSCKASGYTFSSYWIYWVKQRPGQGLEWIGYINPTTGYTEYNQKFRDKATLTADKSSNTAYMQLSSLTSEDSAVYYCATEGGNWEDYWGQGTTLTVSS
VL: DIQMTQTTSSLSASLGDRVTISCRASQDISNYLNWYQQKPDGTVKLLIYYTSRLYSGVPSRFSGSGSGTDYSLTISNLEPKDIATYYCQQFSELPRTFGGGTKLEIK
inhibition of adhesion of L229 cells expressing αvβ8 to TGFb1 LAP (potency against ADWA11): > 10 fold
